Test results taken from US10697970B2, “S100A9 levels for predicting lenalidomide and erythropoietin responsiveness” (H. LEE MOFFITT CANCER CENTER AND RESEARCH INSTITUTE, INC., priority 2015, dated 2020).

Experiments:
[1] = tested on: MDS BM-MNC; experiment: Pyroptosis flow cytometry panel in MDS BM-MNC incubated with autologous BM plasma; type: cell-based, human
Protocol: For human samples, treated and untreated BM-MNC were incubated overnight in IMDM, supplemented with 10% autologous BM plasma. Subsequently, cells were harvested, washed twice in 1×PBS, and stained with LIVE/DEAD Violet fluorescent reactive dye according to the manufacturer's protocol (Life Technologies). Cells were resuspended in 1×PBS with 2% BSA, and incubated at room temperature for 15 minutes to block non-specific binding. After washing, cells were stained with 30×FAM-FLICA® Caspase-1 and Caspase-3/7 solution at a ratio of 1:30 for 2 hours at 37° C. Cells were washed and stained for cell surface receptors using CD38:PE-CF594, CD33:BV711, CD34:APC (BD Biosciences), and CD71:PE-Cyanine7 (eBioscience). All antibodies were diluted 1:20, and cells were stained for 30 minutes at 4° C. Cells were washed, resuspended in 1× binding buffer, and stained with Annexin-V:Cy5.5 at a dilution of 1:20 for 15 minutes at room temperature (BD Biosciences). 1× binding buffer was added to a final volume of 400 μL. Sample acquisitions were carried out using a BD LSR II flow cytometer and FACSDiva software (BD Biosciences). Calibration of the flow cytometer was carried out prior to each experiment using Rainbow Mid-Range Fluorescent Particles (BD Biosciences). To establish fluorescence compensation settings, ArC Amine Reactive Compensation Beads were used for LIVE/DEAD Violet staining (Life Technologies), and BD CompBead Plus Anti-Mouse Ig κ/Negative Control (BSA) Compensation Plus Particles were used for surface receptor conjugates (BD Biosciences). Data were analyzed using FlowJo 9.7.5 software (FlowJo, LLC, Ashland, Oreg.).

[2] = tested on: MDS BM-MNC; experiment: qPCR of pyroptosis-related genes in lower-risk MDS BM-MNC treated with CD33-IgG1; type: cell-based, human; conditions: lower-risk MDS BM-MNC (n=5), 24 hours, versus autologous BM plasma alone
Protocol: RNA was isolated from BM-MNC using the RNeasy Mini Kit (Qiagen). cDNA was produced using the iScript cDNA Synthesis Kit (Bio-Rad). Sequences for primers can be found in Table 1. GAPDH mRNA was used for transcript normalization. cDNA was amplified using the iQ SYBR Green Supermix and the CFX96 Real-Time PCR Detection System (Bio-Rad). PCR conditions were as follows: 10 minutes at 95° C., followed by 40 cycles of amplification (15 seconds at 95° C. and 1 minute at 60° C.). Relative gene expression was calculated using the […] method.

B1: CD33-IgG1: S100A9 high-affinity chimeric (CD33-IgG1) decoy receptor (protein)
chain: DPNFWLQVQESVTVQEGLCVLVPCTFFHPIPYYDKNSPVHGYWFREGAIISRDSPVATNKLDQEVQEETQGRFRLLGDPSRNNCSLSIVDARRRDNGSYFFRMERGSTKYSYKSPQLSVHVTDLTHRPKILIPGTLEPGHSKNLTCSVSWACEQGTPPIFSWLSAAPTSLGPRTTHSSVLIITPRPQDHGTNLTCQVKFAGAGVTTERTIQLNVTYVPQNPTTGIFPGDGSGKQETRAGVVH
modifications: left off: a dimerising Fc or GST
reduction of fraction of pyroptotic cells, maximum lineage-specific change, CD33+ cells ([1]; CD33+ immature myeloids, 0.5 μg CD33-IgG1 or 0.1 μM IRAK4 inhibitor, 24 hours): 68% | reduction of fraction of pyroptotic cells, maximum lineage-specific change, progenitor cells ([1]; CD34+CD38+ progenitor cells, 0.5 μg CD33-IgG1 or 0.1 μM IRAK4 inhibitor, 24 hours): 23% | reduction of fraction of pyroptotic cells, maximum lineage-specific change, stem cells ([1]; CD34+CD38− stem cells, 0.5 μg CD33-IgG1 or 0.1 μM IRAK4 inhibitor, 24 hours): 44% | reduction of fraction of pyroptotic cells, maximum lineage-specific change, CD71+ cells ([1]; CD71+ erythroids, 0.5 μg CD33-IgG1 or 0.1 μM IRAK4 inhibitor, 24 hours): 64% | fraction of pyroptotic cells across all lineages studied ([1]; MDS BM-MNC (n=4), autologous BM plasma, 0.5 μg CD33-IgG1 or 0.1 μM IRAK4 inhibitor): marked reduction | MDSC fraction ([1]; short-term treatment with the chimeric receptor): significantly reduced | CASP3 expression [2]: markedly reduced | expression of CASP1, IL-1β, IL-18, and NLRP3 [2]: reduced
